Measured values published in patent US20130034894A1, “NOVEL ALLENE OXIDE SYNTHASE DERIVED FROM LEMNA PAUCICOSTATA” (priority 2010, published 2013).

Assays:
[1] = Kinetic analysis of allene oxide synthase (decrease in absorbance at 234 nm, Hanes-Woolf plot); assay type: biochemical; settings: for Kcat / Km / Vmax: substrate 9-HPOT 5-53 μM, 40 mM phosphate buffer pH 7.5, 1% EtOH, 25° C.
Experimental: SHLpAOS obtained from Lemna paucicostata SH strain was subjected to kinetic analysis. Using a reaction mixture comprising 40 mM phosphate buffer (pH 7.5) and 1% EtOH, the reaction was carried out at a temperature of 25° C. The substrate 9-HPOT was tested at the substrate concentration of 5-53 μM. The substrate 9-HOPT was added as an EtOH solution, and the final concentration of EtOH was adjusted to 1%. 100 μl of the reaction mixture was added into a cuvette, and a decrease in absorbance at 234 nm was scanned over time for 1 minute at an interval of 2 seconds using the SmartSpec Plus Spectrophotometer (Bio-Rad). From the A234 determined, the amount of the reaction product was calculated (e=25,000). Kinetic parameters were determined using the Hanes-Woolf plot ([S]/v versus [S] plot). […] It is believed that compared to AtAOS, SHLpAOS is a very useful AOS in the practical production of KODA.

[2] = Activity testing in KODA production (HPLC quantitation of KODA); assay type: biochemical; settings: 0.32 ng protein in 20 μl 9-HPOT reaction solution, room temperature, 10 minutes; relative to AtAOS
Excerpt: The allene oxide synthase activity can be determined by allowing a 9-product specific lipoxygenase to act on α-linolenic acid, and then adding a given amount of allene oxide synthase to the enzymatic reaction product 9-hydroperoxylinolenic acid (9-HPOT) to produce KODA, and the KODA produced is quantitatively analyzed by HPLC.
After the SHLpAOS sequence integrated into the pTAC-2 vector by the above method was cleaved with NcoI and XhoI, it was introduced into a commercially available vector pET41a (Novagen) for protein expression to obtain a plasmid pET41a/SHLpAOS for expression of Lemna paucicostata allene oxide synthase. This plasmid was transformed into Escherichia coli strain BL21(DE3) (Novagen). Then, it was inoculated in 3 ml of the LB medium containing 30 mg/l kanamycin, and cultured under shaking overnight at 37° C. and 250 rpm. 100 μl of this culture liquid was added to 10 ml of the LB medium containing the same concentration of kanamycin and 1% glucose and cultured under shaking at 37° C. and 250 rpm for 3-4 hours. […]
In the activity testing in KODA production, 5 mM linolenic acid solution (dissolved in 0.1% Tween 80 solution) was prepared, and reacted with lipoxygenase extracted from rice germ at pH 7 at room temperature for 10 minutes to synthesize 9-hydroperoxylinolenic acid (9-HPOT) solution. […] 10 μl of this solution was analyzed by HPLC. […]

Molecule | Kcat [1] [s⁻¹] | Km [1] [µM] | Vmax [1] [µmol/s] | Activity in KODA production, higher than the AtAOS protein [2] [fold] | Affinity for 9-HPOT, higher than AtAOS ([1]; relative to AtAOS) | Kcat value, higher than in AtAOS ([1]; relative to AtAOS) | Kcat/Kn value, higher than in AtAOS ([1]; relative to AtAOS) | Vmax, higher than AtAOS ([1]; relative to AtAOS)
AtAOS: A. thaliana-derived allene oxide synthase (AOS) protein used as the control, expressed in Escherichia coli (protein, UniProt Q96242 34-518, looked up) Allene oxide synthase, …: SGSETPDLTVATRTGSKDLPIRNIPGNYGLPIVGPIKDRWDYFYDQGAEEFFKSRIRKYNSTVYRVNMPPGAFIAENPQVVALLDGKSFPVLFDVDKVEKKDLFTGTYMPSTELTGGYRILSYLDPSEPKHEKLKNLLFFLLKSSRNRIFPEFQATYSELFDSLEKELSLKGKADFGGSSDGTAFNFLARAFYGTNPADTKLKADAPGLITKWVLFNLHPLLSIGLPRVIEEPLIHTFSLPPALVKSDYQRLYEFFLESAGEILVEADKLGISREEATHNLLFATCFNTWGGMKILFPNMVKRIGRAGHQVHNRLAEEIRSVIKSNGGELTMGAIEKMELTKSVVYECLRFEPPVTAQYGRAKKDLVIESHDAAFKVKAGEMLYGYQPLATRDPKIFDRADEFVPERFVGEEGEKLLRHVLWSNGPETETPTVGNKQCAGKDFVVLVARLFVIEIFRRYDSFDIEVGTSPLGSSVNFSSLRKASF | 255.5 ± 4.8 | 36.3 ± 1.3 | 1.7 ± 0.03 | – | – | – | – | –
SHLpAOS: allene oxide synthase obtained from the Lemna paucicostata SH strain, expressed in Escherichia coli (SEQ ID NO: 2, 480 aa) (protein, listed as Lemna paucicostata) MSVSQSDDKAALVPQKTIPGSYGIPFITPLKDRLDFFSNEYQFFQSRVESYGSTIVRLNAPPGPFMAKNPQVIAILDGKSFPVLFDTSKVEKKNIFTGTYMPSTALTGGYRVCAYLDPSEPNHTKIKQLLLNILFNRKDHVIPEFHRAYEKLFDDMDAEIAKSGKFVFNDHNDGAAFEFLGRLFFGVSPSETELGAGGVKDANLWLFSQLCPLMTLGFLPKLLEDLLLHTFPLPPFLFKGKYQAIYKYISSVATDALTMAENLGLSREEAAHNLLFAVCFNSLGGVKVLFPGILRYIAQAGKNLQASLVSEVRSAVSSTGGELTIEALEKMPLTKSVVYESLRLDPPVKYQYGVVKKDMVIESHDRSYEVKAGETLFGYQPFATRDKKIFGPDADNFVAERFIGEEGAKVLRFVVWSNGPETTDPTPVDKQCPGKNLVVLISRLLVAEFFLRYDFFDAEIGAVPLAVKTTITSLTKATTR | 709.2 ± 44.3 | 7.1 ± 1.9 | 4.7 ± 0.3 | ~7 | about 5 fold | about 2.8 fold | about 14 fold | about 2.8 fold
